In IntAct's records for PubMed 22579247:

B1: Abscisic acid receptor PYL3 (Arabidopsis thaliana (Mouse-ear cress)), Q9SSM7 (parent)
chain: MNLAPIHDPSSSSTTTTSSSTPYGLTKDEFSTLDSIIRTHHTFPRSPNTCTSLIAHRVDAPAHAIWRFVRDFANPNKYKHFIKSCTIRVNGNGIKEIKVGTIREVSVVSGLPASTSVEILEVLDEEKRILSFRVLGGEHRLNNYRSVTSVNEFVVLEKDKKKRVYSVVLESYIVDIPQGNTEEDTRMFVDTVVKSNLQNLAVISTASPT

Variants of: B1
Conditions: with HAB1, Q9CAJ0

Variant | effect of a mutation on the interaction
F81A;V202A;I203A | increasing interaction strength
S195L | increasing interaction strength
